Measurements: patent US20120225437A1

Molecular target: Rat MBL-A (mannan-binding lectin A) (rat) (UniProt P19999)
Assay: SPR, MBL immobilised, MASP-1 at 100 nM, equivalent concentrations of NaCl up to 550 mM

Q: “MASP-1ent, modified form of rat MASP-1 in which the zymogen cleavage site has been replaced by an enterokinase recognition site (DDDDK) (from UniProt Q8CHN8 25-704) (enzyme)” was tested. Which percent of maximal binding in the presence of NaCl (ionic strength control) did it give?
A: The percent of maximal binding in the presence of NaCl (ionic strength control) was greater than 60%.
